These results are taken from PMC4991212 (Cell, 2016).

The assay addresses APC2 (cullin subunit of APC/C) (human, UniProt Q9UJX6 1-822). Briefly: cryo-EM structure.

B1: UBE2C (C102A), catalytic Cys only version, in the multiubiquitination trap (enzyme, human, UniProt O00762 1-179, looked up)
chain: MASQNRDPAATSVAAARKGAEPSGGAARGPVGKRLQQELMTLMMSGDKGISAFPESDNLFKWVGTIHGAAGTVYEDLRYKLSLEFPSGYPYNAPTVKFLTPAYHPNVDTQGNICLDILKEKWSALYDVRTILLSIQSLLGEPNIDSPLNTHAAELWKNPTAFKKYLQETYSKQVTSQEP
modifications: active site Cys joined to the TMEA crosslinker
B1: the binding result is recorded as “binds”.
